# Measurements from patent publication EP4269437A1.
# Values joined by “and” are separate entries in the source; they are usually repeats but may differ in a detail not shown here. Equal entries are not always repeated.
# Key:
# Assay in all cases: ELISA on coated protein, anti-human Fc HRP
# CD28 = CD28 (UniProt P10747)
# CTLA-4 = CTLA-4 (UniProt P16410)
# ICOS = ICOS (UniProt Q9Y6W8)
# [1] = biological target: cynomolgus monkey PD-1 protein (cynomolgus monkey) (UniProt B0LAJ3)
# [2] = biological target: murine PD-1 protein (murine) (UniProt Q02242)
# Sequence of murine PD-1 protein (murine) (Q02242 25-167 limits assumed): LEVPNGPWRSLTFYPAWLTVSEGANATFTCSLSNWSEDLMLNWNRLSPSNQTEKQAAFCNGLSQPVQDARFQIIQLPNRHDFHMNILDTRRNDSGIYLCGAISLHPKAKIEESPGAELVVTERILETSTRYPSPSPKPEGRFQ
# Sequence of cynomolgus monkey PD-1 protein (cynomolgus monkey) (B0LAJ3 entry or part of it limits assumed, form in doubt): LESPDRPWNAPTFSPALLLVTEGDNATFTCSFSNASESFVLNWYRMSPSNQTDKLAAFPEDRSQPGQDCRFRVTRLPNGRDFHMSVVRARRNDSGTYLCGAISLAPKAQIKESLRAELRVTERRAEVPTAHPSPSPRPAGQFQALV
# Sequence of ICOS (Q9Y6W8 21-140 limits assumed): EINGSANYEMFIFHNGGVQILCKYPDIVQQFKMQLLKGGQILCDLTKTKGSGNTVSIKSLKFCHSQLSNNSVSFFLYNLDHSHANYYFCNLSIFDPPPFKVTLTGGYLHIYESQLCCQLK
# Sequence of CTLA-4 (P16410 36-161 limits assumed): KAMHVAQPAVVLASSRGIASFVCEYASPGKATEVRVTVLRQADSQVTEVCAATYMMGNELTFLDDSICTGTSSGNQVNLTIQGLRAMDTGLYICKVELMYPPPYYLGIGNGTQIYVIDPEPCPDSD
ELISA (OD) (CD28),ELISA (OD) (CTLA-4),ELISA (OD) (ICOS),ELISA (OD) [1],ELISA (OD) [2],Substance
0.02 OD and 0.021 OD and 0.023 OD,0.024 OD and 0.022 OD and 0.019 OD,0.023 OD and 0.021 OD and 0.022 OD,1.89 OD and 1.79 OD and 1.83 OD,0.024 OD and 0.023 OD,Opdivo (antibody)
0.066 OD and 0.054 OD and 0.053 OD,0.09 OD and 0.086 OD and 0.089 OD,0.125 OD and 0.107 OD and 0.131 OD,2.22 OD and 2.32 OD,0.079 OD and 0.088 OD and 0.09 OD,Keytruda (antibody)
